# Like-named read-outs stand apart in the source and are kept apart here.
# T1: TtArsM (TTC0109) (Thermus thermophilus, UniProt Q72LF0)
# T1 construct: gene TT_C0109; full-length, C-terminal His tag (pET30b NdeI/HindIII), E. coli BL21-CodonPlus(DE3)-RIL
# T1 sequence (Q72LF0 1-249): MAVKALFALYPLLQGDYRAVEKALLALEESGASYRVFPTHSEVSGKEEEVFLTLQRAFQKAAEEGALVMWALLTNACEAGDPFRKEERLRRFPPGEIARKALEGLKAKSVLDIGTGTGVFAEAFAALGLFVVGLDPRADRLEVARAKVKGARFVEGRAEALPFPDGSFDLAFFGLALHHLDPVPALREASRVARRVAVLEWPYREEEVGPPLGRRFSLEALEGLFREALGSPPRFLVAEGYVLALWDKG
# T2: TtArsM (Thermus thermophilus HB27) (UniProt Q72LF0)
# T2 sequence: T1 sequence (Q72LF0 1-249)
# T3: Recombinant TtSmtB with the His tag removed (Thermus thermophilus HB27, UniProt Q72KG0 1-123)
# T3 construct: TtSmtB, ArsR/SmtB family transcriptional repressor of Thermus thermophilus HB27; source: E. coli BL21-CodonPlus (DE3)-RIL, pET28/TtsmtB, purified; His tag removed; not shown: His tag, C-terminal, cleaved
# T3 sequence (looked up): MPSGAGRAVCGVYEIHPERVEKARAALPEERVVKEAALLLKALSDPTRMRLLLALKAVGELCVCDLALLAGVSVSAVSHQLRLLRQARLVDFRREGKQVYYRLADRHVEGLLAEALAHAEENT
# B1: Recombinant C-terminal His-tagged TtArsM (TTC0109) (enzyme, Thermus thermophilus HB27, UniProt Q72LF0 1-249, looked up)
# chain: T1 sequence (Q72LF0 1-249)
# notes: TtArsM (TTC0109) of Thermus thermophilus HB27; TtarsM gene PCR amplified from the genome and cloned NdeI/HindIII into pET30b(+); predicted mass 29.1 kDa; source: E. coli BL21-CodonPlus (DE3)-RIL, pET30b(+)/TtarsM, purified (HisTrap); not shown: His tag, C-terminal, kept
# How the values were obtained:
# [1] = target: T4, TtSmtB-TtArsM complex (Thermus thermophilus, UniProt Q72KG0); format: binding; conditions: 1:100 protein/arsenic ratio, arsenite preincubated with TtSmtB 10 min at 60 °C, co-IP buffer pH 7.5, weakens the protein-protein complex
# T4 construct: gene smtB; recombinant TtSmtB (E. coli, C-terminal His tag removed) plus C-terminally His-tagged TtArsM; with Arsenite methyltransferase (ArsR family transcriptional regulator / SAM-dependent methyltransferase domain protein)
# [2] = target: T1, TtArsM (TTC0109); experiment: coupled colorimetric SAH-release methyltransferase assay, […] nm; products by GC-MS; format: biochemical; conditions: methyl donor; same
# [3] = target: T2, TtArsM (Thermus thermophilus HB27); experiment: EMSA; conditions: EMSA: 20 ng parsM, 1 ug poly(dI-dC), SYBR Gold stain; buffer, salt, pH and temperature as in previous work (refs 23, 62), not given
# [4] = target: T3, Recombinant TtSmtB with the His tag …; experiment: co-IP; 5 μg TtSmtB (His tag removed) and 5 μg His-tagged TtArsM in co-IP buffer (50 mM Tris-HCl pH 7.5, 150 mM NaCl, 10% glycerol, 0.1% Triton X-100), 4°C, 2 h; immunoprecipitated with anti-TtSmtB antibodies and protein A-Sepharose, blot with anti-His; with or without arsenite, arsenate, cadmium or antimony at 1:0, 1:25, 1:50, 1:100 molar ratios preincubated with TtSmtB; conditions: both partners purified
# [5] = target: the molecule itself; experiment: SEC; 500 μg purified TtArsM on analytical Superdex PC75, 50 mM Tris-HCl pH 7.5, 0.2 M KCl; calibrated with gel filtration markers
molecule,measurement,setting,value
O=[As](O)(O)O [arsenate],fold decrease in complex band intensity,[1]; with arsenate,up to 3
C[S+](CC[C@H](N)C(=O)O)C[C@H]1O[C@@H](n2cnc3c(N)ncnc32)[C@H](O)[C@@H]1O (some centres unmarked) [SAM],"coupled colorimetric SAH-release methyltransferase assay, 510 nm; products by GC",[2],formation of S-adenosylhomocysteine (SAH) from SAM after transfer of methyl group(s) on the substrate
GGAAGGGGAAGCGGTGTTTCTCGCCCCCGAGGCCAATCCCCCCTACGAGGAGGCGGACCAGGCGGGAAGGCGCGCGGGGAACCGCCCCGCCCTATACTTGGGGAGATG (double strand) [parsM],binding,[3],no binding
O[As](O)O [arsenite],fold decrease in complex band intensity,[1],up to 3
B1,fold decrease of the co-IP band with arsenate (1:100 protein/arsenic ratio) against the complex without metal,[4],≤ 3 fold
same,fold decrease of the co-IP band with arsenite (1:100 protein/arsenic ratio) against the complex without metal,[4],≤ 3 fold
same,fold increase of the co-IP band with cadmium against the complex without metal,[4],≤ 2 fold
same,stoichiometry N,[5],2
